Laboratory results: US10501502B2, “Allophycocyanin alpha-subunit evolved labeling proteins (smURFPs)” (The Regents of the University of California, priority 2016, dated 2019)
Positions count from the first letter of the chain named.

B1: R3-2 + PCB: evolved APCα FP, SEQ ID NO: 4, with PCB (protein)
chain: MKTGEQRVKIATLLSENEKKIVDKASQDLWRRRPDFIAPGGIAFGQRERALCLRDYGWYLRLITFCLLAGDKDPIESIGLIGIREMYNSLGVPVPGMMESIRCLKEASLSLLDEEDAKETAPYFDYIIQAMS
modifications: phycocyanobilin chromophore; smRUFP Variant Polypeptide
B2: R4-1: evolved APCα FP, SEQ ID NO: 5, with BV (protein)
chain: B1 chain with G45S, G57R, R61H, Q129K
modifications: biliverdin chromophore; smRUFP Variant Polypeptide
B3: R8-8: evolved APCα FP, SEQ ID NO: 9, with BV (protein)
chain: MKTCEQRVKIATLLSENKKKIVDKASQDLWRRHPDLIAPGGIAFSQRDRALCLRDYGWYLHLITFCLLAGDKGPIESIGLIGIREMYNSLGVPVPAMMESIRCLKEASLSLLDEEDANETAPYFDYIIKAMS
modifications: biliverdin chromophore; smRUFP Variant Polypeptide
B4: R8-9: evolved APCα FP, SEQ ID NO: 10, with BV (protein)
chain: B3 chain with K9N, H33R, A96D, N118K
modifications: biliverdin chromophore; smRUFP Variant Polypeptide
B5: R7-7: evolved APCα FP, SEQ ID NO: 8, with BV (protein)
chain: B3 chain with D48E, A96G, N118K, M131I
modifications: biliverdin chromophore; smRUFP Variant Polypeptide
B6: R10-10: evolved APCα FP, SEQ ID NO: 11, with BV (protein)
chain: B3 chain with K9N, S15T
modifications: biliverdin chromophore; smRUFP Variant Polypeptide
B7: R11-2: evolved APCα FP, SEQ ID NO: 12, with BV (protein)
chain: B3 chain with K9N, S15T, G82S, D113E
modifications: biliverdin chromophore; smRUFP Variant Polypeptide

Legend:
[1] = FP purification and fluorescence characterization in vitro (spectra, extinction coefficient, quantum yield); assay type: physicochemical
Protocol: FP genes were expressed on a pBAD vector (Life Technologies) with a polyhistidine tag on the C terminus, cells were lysed with B-PER (Thermo Scientific), and purified using Ni-NTA (Qiagen) puri-fication. PCB (HO-1+PcyA) and BV (HO-1) incorporation in Escherichia coli was performed simultaneously during constitu-tively active FP expression. Extinction coefficient was determined by PCB or BV absorbance as described35,36 (Table 3, smURFP+BV and TDsmURFP+BV, and Table 2) or calculated for the apoproteins by determining the protein concentration by the BCA protein assay (Pierce), and a specific chromo-phore concentration was added (specified in the Purification of FP lacking chromophore and in vitro chromophore incorporation section) to get 1 and 2 chromophore species (Table 5, not including (Escherichia coli)). When FP chromophore (PCB or BV) was expressed in Escherichia coli, the PCB and BV Q band had absorbance that overlapped with detection of BCA or Bradford assay of 562 nm and 592 nm, respectively. We used the previously published protocols35,36, where there was no change of the BV absorbance at 390 nm when free in solution or attached to the FP. smURFP+BV denaturation with 1 M urea caused no change in the BV absorbance at 390 nm, but the Q band was reduced ˜20-fold. Therefore, the extinction coefficient of BV at 390 nm was used to calculate the concentration of holoprotein (FP+PCB or BV) concentration.
(§1) EX and EM spectra were obtained using SPEX Fluorolog fluorometer (Horiba). Absorbance spectra were obtained using UV-VIS Spectrophotometer Cary Eclipse (Varian) or UV-2700 (Shimadzu). Quantum yield was determined relative to Cy5. Incorporation rates of BV on 0.5 μM smURFP was performed by addition of smURFP to PBS alone or with 20% fetal bovine serum (FBS) and mixed by pipetting in a quartz cuvette. Chromophore was added last, mixed by pipetting, and fluorescence was recorded using SPEX Fluorolog fluorometer (Horiba). Photobleaching was characterized on bubbles of purified FP or Cy5 within mineral oil using light from a 150 W xenon arc lamp with 100% light through EX/EM=628(40)/680(30) nm for smURFP, TDsmURFP, and Cy5 or EX/EM=665 (45)/725 (50) nm for IFP 1.4 focused with a 40×, 1.2 numerical aperture C-Apochromat oil-immersion lens on a Zeiss Axiovert 200M inverted microscope. Photobleaching times were normalized to reflect an initial illumination intensity producing 1,000 photons per fluorescent molecule per second as previously described^37.
HO-1 was removed by digesting the pBAD vector (Life Technology) with MscI and PmeI (NEB). smURFP and TDsmURFP were expressed and purified as described above. No chromophore was present on smURFP and TDsmURFP (confirmed by UV, fluorescence imaging, and MS). For predominant fluorescent species+2 chromophores, a ten-fold excess of chromophore was added to smURFP and TDsmURFP. For predominant fluorescent species+1 chromophore, a quarter concentration of chromophore was added to smURFP and TDsmURFP. Chromophore was added in PBS+10% FBS at 37° C. overnight. smURFP+chromophore and TDsmURFP+chromophore were purified using NiNTA (Qiagen) to remove excess or noncovalently attached chromophore.

[2] = In vitro photobleaching of bubbles of purified FP or Cy5 in mineral oil; assay type: physicochemical
Protocol: as §1

Escherichia coli = assay: Fluorescence of FPs expressed in Escherichia coli; assay type: cell-based; conditions: for fold brighter than R4-1: expressed in E. coli with HO-1
Protocol: TeAPCα gene (codons optimized for Escherichia coli) was made by GenScript. Mutations were placed by random mutagenesis using GeneMorphII Random Mutagenesis Kit (Agilent Technologies). Screens for mutants that fluoresce with PCB or BV were performed by subcloning into a pBAD vector (Life Technologies) that expressed cyanobacteria Synechocystis HO-1 and Synechocystis PcyA genes for PCB production and Synechocystis HO-1 only for BV production, as previously described^34. Libraries were expressed in TOP 10 Electrocompetent Escherichia coli cells (Life Technologies) with addition of 0.2% arabinose to LB agar plates (FPs were constitutively expressed in Escherichia coli). Fluorescence was imaged on plates using a BioSpectrum AC Imaging System (UVP) with EX/EM=628(40)/690(50) nm for FPs+PCB, EX/EM=685(40)/710LP nm for rounds 4 and 5 FPs+BV, and EX/EM=650(13)/690(50) nm for Cy5-like FPs+BV (rounds 6-12). At round 6, 5-10 of the brightest colonies on each plate were combined in LB+0.2% arabinose, grown ˜18 h, mixture of plasmid DNA was purified, and TOP10 cells were transformed and plated on LB agar plates+0.2% arabinose. Fluorescence was screened on plates (as described above), 10-20 of the brightest colonies were screened in liquid culture fluorescence (FIG. 7a-e), plasmid DNA was purified, and DNA was sequenced. The plasmid DNA of 2-3 of the brightest FPs was chosen for mutagenesis for the subsequent round. When choosing DNA for subsequent mutagenesis rounds, genes with increased and/or novel silent DNA mutations were chosen over other DNA that had the same DNA and/or protein sequence of the previous round. Site-specific mutagenesis was performed using QuikChange Lightning Mutagenesis Kit (Agilent Technologies) to create smURFP (C4S mutation) and smURFP C52S.

[3] = Native PAGE quaternary structure / stoichiometry; assay type: physicochemical
Protocol: Native PAGE was run using NativePAGE Novex Bis-Tris Gel System (Life Technologies) on Native PAGE 4-16% Bis-Tris protein gels (Life Technologies). SDS-denaturing PAGE was run using NuPAGE MOPS SDS running buffer (Life Technologies) and NuPAGE Novex 4-12% Bis-Tris gels (Life Technologies). Precision Plus Protein Dual Color Standards (Bio-Rad) were used as an MW ladder. Zinc blot was performed after running the SDS-PAGE gel using the described method^44. Fluorescence was imaged using a BioSpectrum AC Imaging System (UVP) with EX/EM=535(45)/605(70) nm for tdTomato, EX/EM=650(13)/690(50) nm for smURFP and TDsmURFP, EX/EM=685(40)/710LP nm for IFP1.4 and BV+zinc.

| Molecule | Emission Maximum ([1]; Table 5) | Excitation Maximum ([1]; Table 5) | Extinction Coefficient ([1]; Table 5) | Quantum Yield ([1]; Table 5) | molecular brightness relative to eGFP ([1]; Table 5) | in vitro photobleaching t50% ([2]; excitation intensity yielding 1,000 photons per s) | In vitro photostability t50% ([2]; time to bleach 50% from an initial emission rate of 1,000 photons per s) | extinction coefficient (EC) [1] | quantum yield (QY) [1] | Molecular Brightnes Relative to smURFP ([1]; Table 4) | Emission Maximum ([1]; evolved APCα FPs, Table 4) | Excitation Maximum ([1]; evolved APCα FPs, Table 4) | Extinction Coefficient ([1]; evolved APCα FPs, Table 4) | Quantum Yield ([1]; evolved APCα FPs, Table 4) | fluorescence when expressed in E. coli (qualitative) (Escherichia coli) | quaternary structure on native gel [3] | fold brighter than R4-1 (Escherichia coli) |
| --- | --- | --- | --- | --- | --- | --- | --- | --- | --- | --- | --- | --- | --- | --- | --- | --- | --- |
| Cy5 [reference compound] | 670 nm | 649 nm | 250,000 ^ m^−1cm^−1/chromophore | 25% | 186% | 22 s | 22 s |  |  |  |  |  |  |  |  |  |  |
| B1 |  |  |  |  |  |  |  | 74,000 M^−1cm^−1 | 13% | 30% | 648 nm | 620 nm | 74,000 M^−1 cm^−1 | 13% | lacked fluorescence with BV |  |  |
| B2 |  |  |  |  |  |  |  | 93,000 M^−1cm^−1 | 9.0% | 26% | 674 nm | 647 nm | 93,000 M^−1 cm^−1 | 9.0% |  | tetramer |  |
| B3 |  |  |  |  |  |  |  | 260,000 M^−1cm^−1 | 13% | 104% | 672 nm | 648 nm | 260,000 M^−1 cm^−1 | 13% |  |  | 5.8 fold |
| B4 |  |  |  |  |  |  |  | 175,000 M^−1cm^−1 | 12% | 65% | 672 nm | 644 nm | 175,000 M^−1 cm^−1 | 12% |  |  | 5.7 fold |
| B5 |  |  |  |  |  |  |  | 250,000 M^−1cm^−1 | 16% | 123% | 676 nm | 648 nm | 250,000 M^−1 cm^−1 | 16% |  |  | 1.3 fold |
| B6 |  |  |  |  |  |  |  | 200,000 M^−1cm^−1 | 15% | 93% | 672 nm | 646 nm | 200,000 M^−1 cm^−1 | 15% |  | homodimer | 8.3 fold |
| B7 |  |  |  |  |  |  |  |  |  | 70% | 672 nm | 642 nm | 190,000 M^−1 cm^−1 | 12% | slightly more fluorescent than R10-10 |  |  |
